Article PMC9071424, “Microarray screening reveals two non-conventional SUMO-binding modules linked to DNA repair by non-homologous end-joining” (Nucleic Acids Research, 2022)

Biological target: T1, XLF-6×His (human, UniProt Q9H9Q4 1-299)
T1 construct: XLF (NHEJ1), human, amplified from pGEX2TKP-XLF and subcloned into pHAT5; source: E. coli BL21-CodonPlus (DE3)-RIL, purified (HP His-trap, HiTrap Q HP)
Experiment: BLI; XLF binding of XRCC4 1–164 and its mutants
Conditions: both partners purified

T1 sequence (Q9H9Q4 whole entry): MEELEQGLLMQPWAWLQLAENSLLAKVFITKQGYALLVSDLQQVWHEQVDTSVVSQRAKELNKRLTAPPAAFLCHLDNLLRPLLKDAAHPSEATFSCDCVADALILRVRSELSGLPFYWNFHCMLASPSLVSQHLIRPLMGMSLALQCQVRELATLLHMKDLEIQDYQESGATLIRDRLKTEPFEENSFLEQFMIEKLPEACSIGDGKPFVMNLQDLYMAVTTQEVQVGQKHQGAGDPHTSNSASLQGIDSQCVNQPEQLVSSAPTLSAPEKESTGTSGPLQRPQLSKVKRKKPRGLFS

B1: 6×His-XRCC4^1–164 (C-to-A) (domain or fragment, human, UniProt Q13426 1-164, looked up)
chain: MERKISRIHLVSEPSITHFLQVSWEKTLESGFVITLTDGHSAWTGTVSESEISQEADDMAMEKGKYVGELRKALLSGAGPADVYTFNFSKESAYFFFEKNLKDVSFRLGSFNLEKVENPAEVIRELIAYALDTIAENQAKNEHLQKENERLLRDWNDVQGRFEK
modifications: 15N-labelled where it was the observed protein in NMR
notes: pET-28a vector; also called XRCC4 head domain; not shown: 6×His, N-terminal, kept
**Q.** Does B1 bind?
**A.** Result: binds
